Measured values: US7897729

Biological target: FcγRIII (CD16) (human) (UniProt P08637)
Test: cell-based or functional assay

FcγRIII (CD16) (human), sequence (P08637 17-254): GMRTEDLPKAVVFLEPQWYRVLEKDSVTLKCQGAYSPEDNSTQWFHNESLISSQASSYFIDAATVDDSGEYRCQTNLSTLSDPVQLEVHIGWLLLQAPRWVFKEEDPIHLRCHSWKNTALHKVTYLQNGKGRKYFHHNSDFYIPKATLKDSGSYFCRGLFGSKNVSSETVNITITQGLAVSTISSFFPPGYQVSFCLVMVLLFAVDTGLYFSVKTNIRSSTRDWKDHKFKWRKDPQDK

Substance	IFN-γ secretion from PBMC, immobilized anti-CD16 mAb (10 µg/ml) + IL-2	TNF-α secretion from PBMC, immobilized anti-CD16 mAb (10 µg/ml) + IL-2	proliferative response of PBMC ([3H]thymidine), IL-2 and immobilized anti-CD16 mAb	proliferative response of PBMC ([3H]thymidine), immobilized anti-CD16 mAb alone, no IL-2	IFN-γ secretion from PBMC, aggregated IgG (40 µg/ml) + IL-2	TNF-α secretion from PBMC, aggregated IgG (40 µg/ml) + IL-2	fold induction of PBMC proliferation over IL-2, 125 µg/mL of AIG	proliferative response of PBMC, 125 µg/mL of AIG and IL-2
anti-CD16 mAb 3G8 (antibody)	9.85 ng/mL	3.32 ng/mL	15500 CPM	592 CPM				
heat aggregated IgG (AIG)					13 ng/mL	2.46 ng/mL	16 fold	17400 CPM
